Data as given in patent US20040076601A1, “Pharmaceutical form comprising a cell regulating factor and/or a cell proliferation promoter” (priority 2000, published 2004).

How the values were obtained:
BP-A31 cells = assay: Stability of the biological activity of FGF-2 after storage at 4° C., MTT assay (Example 4); type: cell-based, mouse; conditions: MTT assay 24 h, FIG. 1
Method: The materials used are on the one hand the three pharmaceutical forms of Example 3, in which the support material consists of different proportions by weight of methylidene malonate oligomers and polymers, and on the other hand free (non-formulated) FGF-2. After storage of the 3 pharmaceutical forms and the free FGF-2 for 7, 14 and 21 days at 4° C., the stimulating activity on cell proliferation is measured by the MTT assay described in Example 2 for 24 h compared with a control culture with no growth factor added.
The results are shown graphically in FIG. 1, in which the storage time at 4° C., expressed in days, is plotted on the abscissa and the percentage proliferation is plotted on the ordinate.

BP-A31 fibroblasts = assay: MTT proliferation assay of form containing SPC (Example 7); type: cell-based, mouse; conditions: BP-A31 fibroblasts over 24 h vs untreated control; 3.1% added to the well, final theoretical SPC concentration 15 μM
Method: SPC was formulated in a support material containing 60% by weight of methylidene malonate oligomer and 40% by weight of methylidene malonate polymer prepared from 1-ethoxycarbonyl-1-ethoxycarbonylmethyleneoxycarbonylethene monomer (100 μg of SPC formulated per 40 mg of material, as described in Example 2). The pharmaceutical form according to the invention, containing SPC or its control solvent, was then brought into contact with BP-A31 fibroblasts according to the protocol described in Example 1. The effect of adding 3.1% to the well, generating a final theoretical SPC concentration of 15 μM, is shown here. The stimulation of cell proliferation was quantified by the MTT assay. The results, expressed as the percentage proliferation of the cells over 24 h compared with an untreated control culture, are reported in Table 6 below.

Compound | stability of biological activity on storage (BP-A31 cells) | Proliferation (%) (BP-A31 fibroblasts)
free (non-formulated) FGF-2: free (non-formulated) basic fibroblast growth factor, human recombinant FGF-2 | rapidly losing its biological activity (after 7 days) | –
CCCCCCCCCCCCC/C=C/[C@@H](O)[C@@H](N)COP(=O)([O-])OCC[N+](C)(C)C [Free SPC, sphingosylphosphorylcholine] | – | 158.8 ± 3.2%
